Data as given in publication PMC9650048.

Assays:
[1] = target: histone deacetylase 1 (HDAC1), Xenopus (Xenopus laevis (endogenous in egg nucleoplasmic extract)); experiment: immunodepletion (co-depletion), Western blot of the depleted extract; antibody on Protein-A Sepharose incubated with NPE at 4 °C for 1 h over two rounds; depleted extract blotted
[2] = target: histone deacetylase 1 (HDAC1), Xenopus (Xenopus laevis (endogenous in egg nucleoplasmic extract)); experiment: co-IP; sequential IPs from NPE diluted 5x in ELB (10 mM Hepes-KOH pH 7.7, 2.5 mM MgCl2, 50 mM KCl, 250 mM sucrose), serum or antibody on Protein-A Sepharose, 4 °C 120 min, three washes; first round HDAC1 or HDAC2 IP, second round the converse antibody on the supernatant; supernatant and pellet by Western blot

## histone deacetylase 2 (HDAC2), Xenopus (enzyme)
[1]
  percent of HDAC2 codepleted with HDAC1: 50%
[2]
  percent of HDAC2 removed by the HDAC1 IP: 50%
